# Experimental data: patent publication US6599718B1, “Growth hormone secretagogue related receptors and nucleic acids” (priority 1998, dated 2003)
# Ends that are not written are not given here.
# B1: rat neuromedin U-23 (rat NMU-23) (peptide, UniProt P12760 144-166, looked up)
# peptide: YKVNEYQGPVAPSGGFFLFRPRN-NH2
# notes: mature; also called unlabeled rat neuromedin U-25; Neuromedin U-25 (rat)
# Tests used:
# [1] = biological target: human growth hormone secretagogue related receptor (GHSR-R) (human) (UniProt Q9HB89); assay: cell-based or functional assay
# [2] = tested on: other G-protein coupled receptors; assay: Aequorin assay, cells transfected with other G-protein coupled receptors in the same vector; format: cell-based; conditions: other GPCRs cloned into the same vector
# GHSR-R = biological target: T1, GHSR-R (Homo sapiens, UniProt Q9HB89); assay: β-lactamase assay in CHO-NFAT-bla cells stably expressing GHSR-R; format: cell-based; conditions: triplicates, read-out: EC50 of NMU for GHSR-R
# T1 construct: expressed in transfected cells
# T1 sequence (Q9HB89 24-426 limits assumed): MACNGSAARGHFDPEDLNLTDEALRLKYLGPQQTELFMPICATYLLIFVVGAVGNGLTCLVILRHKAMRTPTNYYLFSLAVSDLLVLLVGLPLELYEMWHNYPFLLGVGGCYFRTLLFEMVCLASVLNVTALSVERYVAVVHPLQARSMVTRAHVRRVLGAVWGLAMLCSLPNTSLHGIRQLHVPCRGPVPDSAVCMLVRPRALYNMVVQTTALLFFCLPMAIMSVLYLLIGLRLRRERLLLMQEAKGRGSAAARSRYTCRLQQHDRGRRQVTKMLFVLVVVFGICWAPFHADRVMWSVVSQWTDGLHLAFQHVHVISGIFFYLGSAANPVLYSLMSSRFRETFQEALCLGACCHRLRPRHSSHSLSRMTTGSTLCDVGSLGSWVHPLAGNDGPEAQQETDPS
# Procedure: β-lactamase assays were carried out as described previously; Zlokarnik et al., 1998, Science 279:84-88. CH.3xNFAT-bla cells (Aurora Biosciences, San Diego, Calif., USA) stably expressing GHSR-R were maintained at 37° C./5% CO2 in DMEM+10% fetal bovine serum (GIBCO-BRL, Gaithersburg, Md., USA), 1 mM sodium pyruvate, 1 mM non-essential amino acid, 55 μM 2-mecaptoethanol, 250 μg/ml zeocin, 5.0 μg/ml puromycin. Cells were seeded at 7,000 cells/well in 96-well clear bottom black-walled plates two days before assay.
# The day the assay was performed, growth media was removed from the cells and replaced with 0.05 mL/well of phenol red-free Opti-MEM (GIBCO-BRL, Gaithersburg, Md., USA). Neuromedin U was diluted in Opti-MEM using 5-fold serial dilutions, and added into assay plates in triplicates at 0.05 ml/well. The plates were incubated at 37° C./5% CO2 for 4 hours. […]
# Fluorescence was measured at emission wave length of 460 nM and 535 nM using an excitation wave length of 405 nM in a Tecan SpectraFluor Plus fluorescence microplate reader (Tecan Austria, Saltzburg, Austria). The ratio of fluorescence between 460 nM and 535 nM was calculated and plotted using the software GraphPad Prism Version 3.0 (GraphPad Software, Inc., San Diego, Calif., USA).
# [3] = tested on: Male rats (Charles River Sprague Dawley); assay: Overnight food intake after ICV (lateral ventricle) injection in rats; format: in vivo, rat; conditions: 10 μg ICV, relative to aCSF vehicle, P<0.01, n=6
# Procedure: Animals and Diet: Male rats (Charles River Sprague Dawley) weighing 250-350 g were maintained in a temperature and humidity controlled facility with a 12 hour light/dark cycle (4:00 AM lights on). Rats were fed standard rodent ground chow (Purina#7012). Fresh diet was provided daily. Both food and water were supplied ad libitum throughout both the pre- and post-surgery periods.
# ICV cannulation: Rats under ketamine/xylazine anesthesia, were stereotaxically implanted in the lateral ventricle with a 26G guide cannula. The guide cannula (Plastics One Roanoke,Va.) was secured with three set screws and dental cement. A dummy internal cannula was placed into the guide cannula to maintain cannula patency. Rats were individually housed in Nalgene metabolism cages and allowed to recover a minimum of seven days before injection with test compounds.
# Acclimation: Beginning the day after surgery, each rat was acclimated to the handling and injection procedure, as well as, the feeding regimen. […] Food intake was measured two hours later and the following morning. […]
# Confirmation of cannula placement: Once the rats were fully recovered from surgery, guide cannula placement was confirmed by evaluating the food intake induced by the injection of 5 μg of hNPY (Peninsula Laboratories, Belmont, Calif.) after a one hour satiation period. Two hour post-injection food intake was recorded for each rat. […]
# [4] = biological target: T2, human growth hormone secretagogue related receptor (GHSR-R) (human, UniProt Q9HB89 24-426); assay: cell-based or functional assay
# T2 sequence: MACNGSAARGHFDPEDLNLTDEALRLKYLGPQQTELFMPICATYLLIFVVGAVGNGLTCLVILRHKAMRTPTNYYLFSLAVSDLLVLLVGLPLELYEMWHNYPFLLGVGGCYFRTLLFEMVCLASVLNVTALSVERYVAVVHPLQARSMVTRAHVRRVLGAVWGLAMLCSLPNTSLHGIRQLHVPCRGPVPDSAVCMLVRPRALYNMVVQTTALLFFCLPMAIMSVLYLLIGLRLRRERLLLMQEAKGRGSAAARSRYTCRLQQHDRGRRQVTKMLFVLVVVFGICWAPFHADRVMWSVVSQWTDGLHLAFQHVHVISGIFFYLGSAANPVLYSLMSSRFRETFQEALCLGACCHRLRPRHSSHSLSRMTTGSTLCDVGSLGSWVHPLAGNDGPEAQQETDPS
# [5] = biological target: T2, human growth hormone secretagogue …; assay: radioligand competition on membranes of HEK293 cells stably expressing human GHSR-R (summary of Example 10)
# Procedure: (§1) All procedures were conducted on ice. Cell pellets were homogenized in a tissue grinder with a PTFE pestle (25 strokes). Crude cell membranes were then isolated by centrifugation of the cell lysate at 13,000×g for 30 minutes. Membrane pellets were resuspended at a protein concentration of 2.8 mg/ml in 50 mM Tris-HCl, pH 7.4, 5 mM MgCl2.
# (§2) After incubation for 1 hour at room temperature, binding reactions were filtered through GC/C filters (Whatman; presoaked for 1 hour in 1% polyethylenimine) on a 48-well cell harvester (Brandel), washed 3×3 ml with ice-cold 50 mM Tris-HCl, pH 7.4 buffer with 10 mM MgCl2. Radioactivity on the filters was quantitated by gamma counting.
# [6] = biological target: T2, human growth hormone secretagogue …; assay: radioligand competition against 0.1 nM 125I-labeled rat NMU on membranes of HEK-293/aeq17 cells stably expressing human GHSR-R, filtration
# Procedure: as §1, §2
molecule,measurement,setting,value
"neuromedin U (NMU), species and length not stated (peptide)","EC50, beta-lactamase reporter assay in CHO-NFAT-bla cells",[1],0.075 nM
same,"EC50, beta-lactamase reporter assay in HEK293CRE-bla cells",[1],3 nM
"neuromedin U (YKVNEYQGPVAPSGGFFLFRPRN; ends and bridges not checked; UniProt P12760 144-166, looked up) [NMU, neuropeptide neuromedin U; rat peptide (Phoenix Pharmaceuticals) in the food intake study]",response to NMU in cells expressing other G-protein coupled receptors,[2],did not show any response
same,EC50,GHSR-R,~0.075 nM
same,suppression of food intake,[3],59%
porcine neuromedin U-8 (porcine NMU-8) (from UniProt P34964 158-165) (peptide),"EC50, FLIPR intracellular Ca2+ assay, COS-7 cells transiently transfected with GHSR-R",[1],45 nM
same,"EC50, aequorin bioluminescence assay (Ca2+ mobilization), HEK293aeq/17 cells stably expressing GHSR-R",[1],2.1 nM
B1,"EC50, FLIPR intracellular Ca2+ assay, COS-7 cells transiently transfected with GHSR-R",[4],55 nM
same,"EC50, aequorin bioluminescence assay (Ca2+ mobilization), HEK293aeq/17 cells stably expressing GHSR-R",[4],14.1 nM
same,IC50,[5],3 nM
same,IC50,[6],3.3 nM
